The target of assay [1] is E-cadherin (Homo sapiens) (UniProt P12830). The following applies: cited from earlier work.
The target in assay [2] is T1, recombinant human E-Cad (Gln23 - Pro621 fused to human IgG Fc) (human, UniProt P12830 23-621).
T1 sequence (looked up): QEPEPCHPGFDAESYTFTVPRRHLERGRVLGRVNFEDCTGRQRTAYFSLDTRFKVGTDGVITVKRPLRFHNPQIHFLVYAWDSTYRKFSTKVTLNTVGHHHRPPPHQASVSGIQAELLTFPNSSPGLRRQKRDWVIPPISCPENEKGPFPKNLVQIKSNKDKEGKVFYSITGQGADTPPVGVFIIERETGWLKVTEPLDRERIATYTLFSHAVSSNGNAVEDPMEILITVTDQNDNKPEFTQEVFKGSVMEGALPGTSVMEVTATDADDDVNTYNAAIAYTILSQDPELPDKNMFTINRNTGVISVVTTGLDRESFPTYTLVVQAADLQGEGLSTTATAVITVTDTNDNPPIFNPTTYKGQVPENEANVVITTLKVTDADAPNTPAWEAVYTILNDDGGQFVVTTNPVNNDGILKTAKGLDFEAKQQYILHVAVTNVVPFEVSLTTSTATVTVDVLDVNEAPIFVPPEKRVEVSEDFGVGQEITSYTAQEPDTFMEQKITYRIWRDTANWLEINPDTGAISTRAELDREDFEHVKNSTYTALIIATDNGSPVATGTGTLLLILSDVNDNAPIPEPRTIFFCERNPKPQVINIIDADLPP
Nature of the assay: SPR.

Assay [3] addresses T2, recombinant human VE-cad (Asp48-Gln593 fused to human IgG Fc) (human, UniProt P33151 48-593).
T2 sequence (looked up): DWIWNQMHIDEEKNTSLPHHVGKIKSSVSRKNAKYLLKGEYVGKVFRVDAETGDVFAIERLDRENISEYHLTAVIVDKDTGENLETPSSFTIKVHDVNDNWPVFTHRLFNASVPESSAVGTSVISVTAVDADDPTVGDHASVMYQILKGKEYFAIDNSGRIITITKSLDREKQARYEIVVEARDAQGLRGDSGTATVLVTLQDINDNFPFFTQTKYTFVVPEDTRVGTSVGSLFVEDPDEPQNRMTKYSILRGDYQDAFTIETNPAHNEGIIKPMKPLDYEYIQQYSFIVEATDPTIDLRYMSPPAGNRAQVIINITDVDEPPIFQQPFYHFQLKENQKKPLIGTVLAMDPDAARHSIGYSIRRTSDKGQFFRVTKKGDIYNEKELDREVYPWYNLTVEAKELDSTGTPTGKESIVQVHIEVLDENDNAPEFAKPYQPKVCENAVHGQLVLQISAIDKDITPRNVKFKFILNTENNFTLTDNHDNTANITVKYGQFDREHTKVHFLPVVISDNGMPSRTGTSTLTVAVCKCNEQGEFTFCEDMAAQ
Description: SPR. (Surface plasmon resonance follows binding to a sensor surface in real time, without labels.)

Chain of E-cadherin (Homo sapiens) (P12830 155-709): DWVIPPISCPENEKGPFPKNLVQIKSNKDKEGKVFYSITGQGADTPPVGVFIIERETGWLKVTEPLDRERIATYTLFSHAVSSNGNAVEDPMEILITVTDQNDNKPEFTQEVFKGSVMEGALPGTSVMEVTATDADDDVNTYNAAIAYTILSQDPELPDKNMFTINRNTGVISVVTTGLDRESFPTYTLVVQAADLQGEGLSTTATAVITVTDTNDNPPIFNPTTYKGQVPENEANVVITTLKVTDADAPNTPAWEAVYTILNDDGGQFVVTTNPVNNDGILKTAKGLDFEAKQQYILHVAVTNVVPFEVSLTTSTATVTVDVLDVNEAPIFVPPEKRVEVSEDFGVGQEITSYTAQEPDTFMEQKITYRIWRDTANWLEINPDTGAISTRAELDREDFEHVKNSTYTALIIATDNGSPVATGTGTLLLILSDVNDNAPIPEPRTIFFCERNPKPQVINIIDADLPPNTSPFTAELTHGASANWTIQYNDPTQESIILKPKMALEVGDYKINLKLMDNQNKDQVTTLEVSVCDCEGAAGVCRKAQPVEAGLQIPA

For InlA (from UniProt P0DJM0), the equilibrium dissociation constant (Kd) – broadly, the constant that tells how readily two partners part at equilibrium – in assay [1] was 8 µM.

B1: recombinant LIC10831, histidine tag removed (natural protein)
chain: EEPGTYRDLTKALQNPLEVRVLDLSRQELKTLPIEIGKLKNLQRLYLHYNQLTVLPQEIEQLKNLQLLYLRSNRLTTLPKEIEQLKNLQVLDLGSNQLTVLPQEIEQLKNLQLLYLHSNRLTTLSKDIEQLQNLKSLDLSNNQLTTLPNEIEQLKNLKSLYLSENQFATFPKEIGQLQNLKVLFLNNNQITILPNEIAKLKKLQYLYLSDNQLITLPKEIEQLKNLQTLDLSYNQLTILPKEVGQLENLQTLDLRNNQLKTLPKEIEQLKNLQTLFLSNNQLTILPQEIGKLKNLLWLSLVYNQLTTLPNEIEQLKNLQTLYLNNNQFSSQEKKRIRKLLPKCQIYFD
As for B1, the results for the Kd in assay [2] and in assay [3] were 2.3 µM and 5.8 µM, respectively.

Values taken from publication PMC7560960 (Cellular microbiology, 2018).
